The results in this text go back to patent US20200291121A1 (JOINT STOCK COMPANY BIOCAD, published 2020).

As a reminder, the Kd is the free concentration of one partner at which half of the binding sites on the other are occupied at equilibrium, for simple one-to-one binding.

Sequences and labels used below:
T1: mouse IL-5Rα, recombinant extracellular domain (mouse, UniProt P21183 18-339)
T1 construct: extracellular domain; also called animal IL-5Rα
T1 sequence (looked up): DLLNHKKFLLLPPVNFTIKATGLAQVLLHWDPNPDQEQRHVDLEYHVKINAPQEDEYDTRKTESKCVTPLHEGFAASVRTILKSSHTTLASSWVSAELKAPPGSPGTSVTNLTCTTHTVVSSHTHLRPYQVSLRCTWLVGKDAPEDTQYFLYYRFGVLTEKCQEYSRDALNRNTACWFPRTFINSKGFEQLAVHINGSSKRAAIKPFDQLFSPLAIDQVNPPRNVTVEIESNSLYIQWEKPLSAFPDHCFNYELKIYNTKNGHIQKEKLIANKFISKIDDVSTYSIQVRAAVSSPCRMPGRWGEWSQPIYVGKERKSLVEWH

T2: human IL-5Rα (interleukin 5 receptor α-chain), recombinant extracellular domain (human, UniProt Q01344 21-342)
T2 construct: extracellular domain; also called IL-5Ra; human antigen; not shown: C-terminal tag (EPEA, Fc or H6F)
T2 sequence (looked up): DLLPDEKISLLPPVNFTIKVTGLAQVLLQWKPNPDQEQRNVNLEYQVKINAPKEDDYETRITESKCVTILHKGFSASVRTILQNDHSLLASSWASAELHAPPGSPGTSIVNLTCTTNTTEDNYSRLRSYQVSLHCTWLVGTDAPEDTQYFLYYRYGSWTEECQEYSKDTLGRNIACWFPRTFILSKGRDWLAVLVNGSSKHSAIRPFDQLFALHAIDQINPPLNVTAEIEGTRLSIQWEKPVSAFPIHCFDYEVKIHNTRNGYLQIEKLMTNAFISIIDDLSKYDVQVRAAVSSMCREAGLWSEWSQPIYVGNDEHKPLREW

T3: cynomolgus monkey IL-5Rα, recombinant extracellular domain (cynomolgus monkey, UniProt C3VEW9 21-342)
T3 construct: extracellular domain; also called macaque IL-5Ra; cynomolgus monkey antigen (IL-5Rα)
T3 sequence: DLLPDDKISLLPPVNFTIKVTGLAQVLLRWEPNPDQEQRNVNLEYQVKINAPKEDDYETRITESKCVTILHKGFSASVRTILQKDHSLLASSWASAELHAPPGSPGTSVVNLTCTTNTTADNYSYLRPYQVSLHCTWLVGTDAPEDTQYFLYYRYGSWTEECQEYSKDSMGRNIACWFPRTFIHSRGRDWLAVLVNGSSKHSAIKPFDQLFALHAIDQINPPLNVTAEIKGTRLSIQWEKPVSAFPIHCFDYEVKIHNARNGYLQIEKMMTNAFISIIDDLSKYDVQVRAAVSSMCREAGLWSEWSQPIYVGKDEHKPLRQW

B1: BCD133-03-020 (antibody, human IgG1, kappa)
heavy: not shown
light: QAGLTQPPSVSAAPGQRVTISCSGSRSNIGSGYDVHWYQQVPGTAPKLLIFDDNNRPSGVPDRFSGSKSGTSASLAITGLQAEDEADYYCQSYDSSLSGHVVFGGGTKLTVLRTVAAPSVFIFPPSDEQLKSGTASVVCLLNNFYPREAKVQWKVDNALQSGNSQESVTEQDSKDSTYSLSSTLTLSKADYEKHKVYACEVTHQGLSSPVTKSFNRGEC
B2: BCD133-03-021 (antibody, human IgG1, kappa, V domains shown)
VH: QVQLQESGGGLVQPGGSLRLSCAASGFTFSNYAMSWVRQAPGKGLEWVSAINSGGKSTNYADSVKGRFTISRDNAKNTLYLQMNSLRAEDTAVYYCADYATNYGVPYFGSWGQGTMVTVSS
VL: QSVLTQPPSVSAAPGQRVTISCSGSRSNIGSGYDVHWYQQLPGTAPKLLIYDDNNRPSGVPDRFSGSKSGTSASLAITGLQAEDEADYYCQSYDSSLSGHVVFGGGTKLTVLR
B3: BCD133-03-002 (antibody, human IgG1, kappa)
heavy: not shown
light: B1 light

The target in the first assay is IL-5Rα stably expressed on CHO-IL-5R cells. Briefly: cell-based or functional assay.
Chain of IL-5Rα stably expressed on CHO-IL-5R cells (Q01344 whole entry): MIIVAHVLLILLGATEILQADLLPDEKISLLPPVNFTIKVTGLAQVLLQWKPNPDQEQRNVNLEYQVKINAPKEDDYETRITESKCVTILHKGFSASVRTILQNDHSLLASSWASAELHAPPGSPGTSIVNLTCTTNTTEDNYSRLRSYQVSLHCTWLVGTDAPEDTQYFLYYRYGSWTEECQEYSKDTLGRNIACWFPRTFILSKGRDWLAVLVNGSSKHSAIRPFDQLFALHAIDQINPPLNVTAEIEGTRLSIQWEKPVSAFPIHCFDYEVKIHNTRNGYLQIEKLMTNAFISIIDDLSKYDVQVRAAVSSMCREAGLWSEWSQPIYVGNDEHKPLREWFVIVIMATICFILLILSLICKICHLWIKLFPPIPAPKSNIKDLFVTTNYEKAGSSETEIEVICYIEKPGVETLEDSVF
As for B1, the “ADCC efficacy (EC50) on CHO-IL-5R cells with PBMC, relative to Benralizumab” value (“ADCC efficacy (EC50) … relative to Benralizumab” below) was 1.6 times (against Benralizumab).

On to B2, for which the “ADCC efficacy (EC50) … relative to Benralizumab” value is 1.6 times (against Benralizumab).

Consider B3, for which the “ADCC efficacy (EC50) … relative to Benralizumab” value is 1.6 times (against Benralizumab).

In another assay the target is T1, mouse IL-5Rα, recombinant extracellular …. Put plainly: BLI (Octet RED 384), antibody immobilised on AR2G sensors, antigen in solution. Background: BLI is a label-free optical method that tracks binding on a fibre tip over time.
B1: the binding result was “no binding”.

Turning to B2, the binding result is “no binding”.

Turning to B3, the binding result was “no binding”.

A further assay concerns the target T2, human IL-5Rα (interleukin 5 receptor …). Put plainly: BLI (Octet RED 384), human IL-5Rα immobilised on AR2G sensors, full-length antibody in solution, 30 °C, 1:1 global model. How it is done: Experimental study of binding affinity of antibodies to human IL-5Rα antigen was performed on Forte Bio Octert RED 384. Human IL-5Rα at a concentration of 20 μg/ml was immobilized on the surface of AR2G sensors (ForteBio) according to a standard protocol and manufacturer's instructions. Analysis was conducted at 30° C. using PBS comprising 0.1% Tween 20 and 0.1% BSA as a working buffer. After baseline recording, the sensors were immersed into wells containing antibody solution for 300 seconds, where the complex was associated. Complex dissociation in buffer solution was then detected for 600 seconds.
Binding curves, after subtracting a reference signal, were analyzed using Octet Data Analysis (Version 9.0) software in accordance with the standard procedure and using 1:1 Global interaction model. Anti-IL-5Rα antibodies specifically bind to human antigen with high affinity. Table A (FIG. 11, 12, 13)
As to B1, the Kd stood at 0.667 nM.

With B2, the Kd worked out at 0.0224 nM.

For B3, the Kd is 0.527 nM.

The target in a further assay is T3, cynomolgus monkey IL-5Rα, recombinant …. Put plainly: BLI (Octet RED 384), antibody immobilised on AR2G sensors, cynomolgus IL-5Rα in solution, 30 °C, 1:1 global model. How it is done:
Experimental study of binding affinity of antibodies to animal IL-5Rα antigen was performed on Forte Bio Octert RED 384. Antibodies at a concentration of 20 μg/ml were immobilized on the surface of AR2G sensors (Forte Bio) according to a standard protocol and manufacturer's instructions. Analysis was conducted at 30° C. using PBS comprising 0.1% Tween 20 and 0.1% BSA as a working buffer. After baseline recording, the sensors were immersed into wells containing antigen solution (animal IL-5Rα) for 300 seconds, where the complex was associated. Complex dissociation in buffer solution was then detected for 600 seconds.
Binding curves, after subtracting a reference signal, were analyzed using Octet Data Analysis (Version 9.0) software in accordance with the standard procedure and using 1:1 Global interaction model. Anti-IL-5Rα antibodies specifically bind to cynomolgus monkey antigen. Table B. FIG. 16,17,18.
With B1, the Kd is 12.2 nM.

On to B2, for which the Kd came to 16.8 nM.

For the molecule B3, the Kd is 5.53 nM.
